Ends that are not written are not given here. * marks the point of attachment. Biotin = O=C1N[C@H]2[C@H](CS[C@H]2CCCCC(=O)*)N1
T1: His-tagged CXorf67, recombinant (human, UniProt Q86X51 1-503)
T1 sequence (looked up): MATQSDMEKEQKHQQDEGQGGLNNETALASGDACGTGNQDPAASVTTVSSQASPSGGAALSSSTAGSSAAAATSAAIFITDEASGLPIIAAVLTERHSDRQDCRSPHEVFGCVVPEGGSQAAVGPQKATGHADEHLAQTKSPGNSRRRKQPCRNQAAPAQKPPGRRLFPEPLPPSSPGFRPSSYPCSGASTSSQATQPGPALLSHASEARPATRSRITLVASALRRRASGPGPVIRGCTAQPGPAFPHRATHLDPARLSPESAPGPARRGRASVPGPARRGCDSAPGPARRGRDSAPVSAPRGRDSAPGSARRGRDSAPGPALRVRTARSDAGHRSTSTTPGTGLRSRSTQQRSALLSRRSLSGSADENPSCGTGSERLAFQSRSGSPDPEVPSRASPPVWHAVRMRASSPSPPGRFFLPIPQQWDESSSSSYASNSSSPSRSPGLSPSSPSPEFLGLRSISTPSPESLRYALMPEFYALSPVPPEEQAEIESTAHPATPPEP

B1: GST-tagged PALB2 WD40 domain (domain or fragment, UniProt Q86YC2 853-1186, looked up)
chain: GNLQLVSELKNPSGSCSVDVSAMFWERAGCKEPCIITACEDVVSLWKALDAWQWEKLYTWHFAEVPVLQIVPVPDVYNLVCVALGNLEIREIRALFCSSDDESEKQVLLKSGNIKAVLGLTKRRLVSSSGTLSDQQVEVMTFAEDGGGKENQFLMPPEETILTFAEVQGMQEALLGTTIMNNIVIWNLKTGQLLKKMHIDDSYQASVCHKAYSEMGLLFIVLSHPCAKESESLRSPVFQLIVINPKTTLSVGVMLYCLPPGQAGRFLEGDVKDHCAAAILTSGTIAIWDLLLGQCTALLPPVSDQHWSFVKWSGTDSHLLAGQKDGNIFVYHYS

Experiments:
[1] = target: T1, His-tagged CXorf67, recombinant; test: pull-down
[2] = target: B1; test: pull-down

| Binder | binding result [1] | binding result [2] |
| --- | --- | --- |
| B1 | binds |  |
| Biotin-GGPIPQQWDESSSSS [biotinylated WT C67 (420-432) peptide] |  | binds |

From paper PMC8455074 (Cancer cell, 2020)
